Among the data in the Human Domainome abundance scans (Beltran et al. 2025) are abundance fitness values, retold here.

The labels stand for the following.
B1: Nucleosome-remodeling factor subunit BPTF, residues 2862 to 2918; numbered along this chain, Q12830 (parent)
chain: TKKDTKLYCICKTPYDESKFYIGCDRCQNWYHGRCVGILQSEAELIDEYVCPQCQST

± gives the uncertainty stated by the source.

The data set covers variants of B1. Kind of data set: abundance fitness (aPCA) (normalised: wild type 0, dead -1); higher = more abundant; growth selection in yeast, the domain comes from the species named. The note with it: Homo sapiens.
Consider TKKDTKLYCICKTPYDESKFYIGCDRCQNWYHGRCVGILQSEAELIDEYVCPQRQST [C54R], for which the abundance fitness was -0.875 ± 0.1.

As to TKKDTKLYCICKTPYDESKFYIGCDRCQNWYHGRCVGILQSEAELIDEYVCPQAQST [C54A], the abundance fitness was -0.851 ± 0.12.

For TKKDTKLYCICKTPYDESKFYIGCDRCQNWYHGRCVGILQSEAELIDEYVCPQWQST [C54W], the abundance fitness was -0.802 ± 0.12.

As to TKKDTKLYCICKTPYDESKFYIGCDRCQNWYHGRCVGILQSEAELIDEYVCPQKQST [C54K], the abundance fitness was -0.613 ± 0.1.

Turning to TKKDTKLYCICKTPYDESKFYIGCDRCQNWYHGRCVGILQSEAELIDEYVCPQDQST [C54D], the abundance fitness was -0.819 ± 0.17.

In the case of TKKDTKLYCICKTPYDESKFYIGCDRCQNWYHGRCVGILQSEAELIDEYVCPQNQST [C54N], the abundance fitness was -0.802 ± 0.16.

For the variant TKKDTKLYCICKTPYDESKFYIGCDRCQNWYHGRCVGILQSEAELIDEYVCPQVQST [C54V], the abundance fitness is -0.934 ± 0.1.

Regarding TKKDTKLYCICKTPYDESKFYIGCDRCQNWYHGRCVGILQSEAELIDEYVCPQEQST [C54E], the abundance fitness was -0.776 ± 0.16.

Turning to TKKDTKLYCICKTPYDESKFYIGCDRCQNWYHGRCVGILQSEAELIDEYVCPQTQST [C54T], the abundance fitness is -1.01 ± 0.12.

Take TKKDTKLYCICKTPYDESKFYIGCDRCQNWYHGRCVGILQSEAELIDEYVCPQHQST [C54H]: the abundance fitness is -0.512 ± 0.13.

Turning to TKKDTKLYCICKTPYDESKFYIGCDRCQNWYHGRCVGILQSEAELIDEYVCPQMQST [C54M], the abundance fitness is -0.648 ± 0.11.

For the variant TKKDTKLYCICKTPYDESKFYIGCDRCQNWYHGRCVGILQSEAELIDEYVCPQSQST [C54S], the abundance fitness is -0.889 ± 0.085.

With TKKDTKLYCICKTPYDESKFYIGCDRCQNWYHGRCVGILQSEAELIDEYVCPQGQST [C54G], the abundance fitness is -0.755 ± 0.14.

Regarding TKKDTKLYCICKTPYDESKFYIGCDRCQNWYHGRCVGILQSEAELIDEYVCPQYQST [C54Y], the abundance fitness was -0.983 ± 0.13.

For the variant TKKDTKLYCICKTPYDESKFYIGCDRCQNWYHGRCVGILQSEAELIDEYVCPQPQST [C54P], the abundance fitness is -0.64 ± 0.12.

Consider TKKDTKLYCICKTPYDESKFYIGCDRCQNWYHGRCVGILQSEAELIDEYVCPQIQST [C54I], for which the abundance fitness is -1.06 ± 0.15.

Take TKKDTKLYCICKTPYDESKFYIGCDRCQNWYHGRCVGILQSEAELIDEYVCPQFQST [C54F]: the abundance fitness is -1.06 ± 0.14.

Consider TKKDTKLYCICKTPYDESKFYIGCDRCQNWYHGRCVGILQSEAELIDEYVCPWCQST [Q53W], for which the abundance fitness is -0.25 ± 0.14.

As to TKKDTKLYCICKTPYDESKFYIGCDRCQNWYHGRCVGILQSEAELIDEYVCPCCQST [Q53C], the abundance fitness was -0.16 ± 0.13.

For the variant TKKDTKLYCICKTPYDESKFYIGCDRCQNWYHGRCVGILQSEAELIDEYVCPECQST [Q53E], the abundance fitness was -0.009 ± 0.092.

TKKDTKLYCICKTPYDESKFYIGCDRCQNWYHGRCVGILQSEAELIDEYVCPNCQST [Q53N]: the abundance fitness was 0.078 ± 0.11.

TKKDTKLYCICKTPYDESKFYIGCDRCQNWYHGRCVGILQSEAELIDEYVCPKCQST [Q53K]: the abundance fitness is -0.122 ± 0.11.

Regarding TKKDTKLYCICKTPYDESKFYIGCDRCQNWYHGRCVGILQSEAELIDEYVCPSCQST [Q53S], the abundance fitness was -0.092 ± 0.089.

As for TKKDTKLYCICKTPYDESKFYIGCDRCQNWYHGRCVGILQSEAELIDEYVCPACQST [Q53A], the abundance fitness was -0.052 ± 0.079.

For TKKDTKLYCICKTPYDESKFYIGCDRCQNWYHGRCVGILQSEAELIDEYVCPPCQST [Q53P], the abundance fitness was -0.054 ± 0.093.

Turning to TKKDTKLYCICKTPYDESKFYIGCDRCQNWYHGRCVGILQSEAELIDEYVCPGCQST [Q53G], the abundance fitness was determined as 0.028 ± 0.092.

Turning to TKKDTKLYCICKTPYDESKFYIGCDRCQNWYHGRCVGILQSEAELIDEYVCPRCQST [Q53R], the abundance fitness is -0.078 ± 0.08.

For the variant TKKDTKLYCICKTPYDESKFYIGCDRCQNWYHGRCVGILQSEAELIDEYVCPICQST [Q53I], the abundance fitness amounted to 0.09 ± 0.13.

As to TKKDTKLYCICKTPYDESKFYIGCDRCQNWYHGRCVGILQSEAELIDEYVCPDCQST [Q53D], the abundance fitness is 0.037 ± 0.11.

As for TKKDTKLYCICKTPYDESKFYIGCDRCQNWYHGRCVGILQSEAELIDEYVCPTCQST [Q53T], the abundance fitness turned out to be 0.054 ± 0.091.

In the case of TKKDTKLYCICKTPYDESKFYIGCDRCQNWYHGRCVGILQSEAELIDEYVCPLCQST [Q53L], the abundance fitness is -0.047 ± 0.084.

As to TKKDTKLYCICKTPYDESKFYIGCDRCQNWYHGRCVGILQSEAELIDEYVCPHCQST [Q53H], the abundance fitness is -0.017 ± 0.14.

On to TKKDTKLYCICKTPYDESKFYIGCDRCQNWYHGRCVGILQSEAELIDEYVCPYCQST [Q53Y], for which the abundance fitness is -0.266 ± 0.13.

On to TKKDTKLYCICKTPYDESKFYIGCDRCQNWYHGRCVGILQSEAELIDEYVCPMCQST [Q53M], for which the abundance fitness was -0.139 ± 0.11.

Turning to TKKDTKLYCICKTPYDESKFYIGCDRCQNWYHGRCVGILQSEAELIDEYVCPQCQGT [S56G], the abundance fitness is -0.195 ± 0.27.

On to TKKDTKLYCICKTPYDESKFYIGCDRCQNWYHGRCVGILQSEAELIDEYVCPQCQFT [S56F], for which the abundance fitness was -0.063 ± 0.22.

As for TKKDTKLYCICKTPYDESKFYIGCDRCQNWYHGRCVGILQSEAELIDEYVCPQCQKT [S56K], the abundance fitness is -0.03 ± 0.39.

In the case of TKKDTKLYCICKTPYDESKFYIGCDRCQNWYHGRCVGILQSEAELIDEYVCPQCQWT [S56W], the abundance fitness was -0.554 ± 0.47.

As to TKKDTKLYCICKTPYDESKFYIGCDRCQNWYHGRCVGILQSEAELIDEYVCPQCQNT [S56N], the abundance fitness was 0.269 ± 0.4.

Take TKKDTKLYCICKTPYDESKFYIGCDRCQNWYHGRCVGILQSEAELIDEYVCPQCQRT [S56R]: the abundance fitness was 0.074 ± 0.35.

On to TKKDTKLYCICKTPYDESKFYIGCDRCQNWYHGRCVGILQSEAELIDEYVMPQCQST [C51M], for which the abundance fitness was -0.688 ± 0.15.

For TKKDTKLYCICKTPYDESKFYIGCDRCQNWYHGRCVGILQSEAELIDEYVFPQCQST [C51F], the abundance fitness is -0.916 ± 0.11.

Consider TKKDTKLYCICKTPYDESKFYIGCDRCQNWYHGRCVGILQSEAELIDEYVDPQCQST [C51D], for which the abundance fitness was -0.718 ± 0.14.

Take TKKDTKLYCICKTPYDESKFYIGCDRCQNWYHGRCVGILQSEAELIDEYVTPQCQST [C51T]: the abundance fitness is -0.981 ± 0.13.

For the variant TKKDTKLYCICKTPYDESKFYIGCDRCQNWYHGRCVGILQSEAELIDEYVAPQCQST [C51A], the abundance fitness was -0.777 ± 0.094.

For TKKDTKLYCICKTPYDESKFYIGCDRCQNWYHGRCVGILQSEAELIDEYVSPQCQST [C51S], the abundance fitness was -0.53 ± 0.089.
